The data set can be described thus: label from the status in PepcDB records.
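Further: failed if final PepcDB status was selected cloned or expressed and not failed if soluble or beyond.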

Consider “MGIEMSLKDIINSNRPSESRQLACALTFCGGFIDAYTYIQRGHTLSAGQTGNVIFFSSALADHNIPGMINRASTFIAFSLGLLLVGLFHKYVKSHYWRVFCLFPILVICIVVGFLPKSVPNYYIVPAIAFGLAVQNASFSKIEGMGYNNVFTTGNLKKSVVAWSAFFFGEDKSKYTAAVNYMMLVISFGLGAIVSALLQKIWVLKTIWIAVIFLAIINCIYIIAIRKHKKLDLSGKNDA”, for which the protein production result was “failed”.

“MGIHAKLETVQLPLLVSCLFPPLTMPAKDVQICPIAVDTTVFRSRTWDRLKFEIEYGLQRGTTANSYLISADKIALFDPPGESFTDNFVGTLIQRLDLNSLDYVILGHVNANRAHTLKLLLSLAPQATIICSNPAAQNLEKLLADAEVNNPIQVMKGNDHLDLGRGHELTFIPTPSPRYPGQLCTYDPRTEILFTDKLFGAHVCGDQVFDEGWTIYQEDRRYYFDCLLAPAAAQVSAALNKLEAYPAQTYAPSHGPLVRYGLRELTRNYQQWLSEQQAQALNVALIYASAYGNTSTLAQAIARGITKAGVAVTAINAETSNAEEIKEAIGKSAGFIFGSPTLGGHAPTPIQTALGITLANASKTQLCGVFGSFGWSGEAIDMLENKFRDAGFSFGFDTIRVKFKPTDQTLKMCEEAGTDFAQALKKAEKRRQPKSALPESESARTEQALGRLVGSLCVVTAQQGELSSAMLASWVSQATFSPPGLTVAVAKERAIESLLHKNSCFVLNILQEGNHLGLMKHFLKPFAPGGDRFADVATETAENGAPILTESLAYLECRVQQRLECGDHWVLYAVTDRGALLKDGVTAVHHRKSGDHY”: the protein production result is given as “failed”. As to “MGIRVKRRQHQHLLESLVHSTAKQQGDFTKTAELATELLCQNLAVSLVSIWIFSADQGTQSLVAQFGSMALQDTYRPSLLHTVPRYLNELKNYRHIDAGNTLIDPRLTELVDSYFIPRQILSSLDVGIRINGHLEGVLCIERAQVTHHWHDSEIHLACQMADQLALTLATKHAYLEHHHHHH”, the protein production entry is listed as “failed”.

For “MGISNIKQLYSKWKSLQPLKPEDLKRWNDKFKLEFNYNSNHLEGNTLTYGQTKLLLMFGETSGNASLKDYEEMKAHNVGLEMIKQEAQDKERPLTESFIRELNRTILVQDYWKNAKTPDGQDIRMQIKVGEYKSRPNSVLTATGEVFSYASPEETPAFMTSLVDWYNLEADKGILTPVELAALLHYRYIRIHPFEDGNGRIARLLVNFVLHRYGYPMIVIHSEDKSNYLNILHQCDVEAGLTPSDGANATLNDILPFVNYLSSCLIRSLTLAIKAAKGESIEEEGDFDKK”, the protein production result is “not failed”. For “MGITDGVVVDLGGGTTGISILEKGKVIFVADEPTGGTHMTLVLAGSYGIDFETAEDIKTDKKKEKEVFVQITPVLQKMAAIVKKYIKDYKVKDVFLVGGACSFDGSESIFERELGLNIYKLEHHHHHH”, the protein production entry was “failed”.

In the case of “MGITITDELLWAILKDELSDAEANALVWQALGYVWDEAQSCWKTDLVAPEWRQDYPEPPDFIASRPATVKLTRSIPAPYKQLLKEELGFAGYSINELVPRKTRRATMTNWLLAYRRSQQD”, the protein production result was “not failed”.

Consider “MGITRKYIANLKDLPTRVQDENDCTSEPFTKPRLCCKMVNKIRNTLVSTETFLQKENITLDTYKRIIRDLVIHLDRVTTKVFVNSLPYNVMDDLGLQECEAFVLKWSEELRKLQSEYRNHLDQISNIERLRRSLNVCLKTREDQIQKVQKEFQWFINILKSLPKSSVCQDGFARIELLNLYRQWKKGQLISMLPIMDFIMKTLLKEKDSILKRKLQPKSA”, for which the protein production result is listed as “failed”.

For “MGKALLIVNPSSGKEKGKTYQGKTEEVLKKRYDEVEVRLTEKAGDATEFASWASEQGFDAVIAMGGDGTLNETINGLAIHEKRPDFGFIPLGTVNDLARSVGIPLKPEKAIQALEKAKAIPMDIGRIGDQYFMNVLAIGMIAQAVDQVSVEQKTKFGSVAYFLEGLKAFNRNELLHFKLEYDEEVWEGEAALVVAGLTKSVGGMESWAPDAKIDDGYLHVVVLTKLGLLDAANMIPQLIRGNLKNSDGVVYIKTKKLTIDASGDDLSINVDGDPGPGVPAEIEVLGSHLNILAPKKSSQKRFGPFILKK”, the protein production entry is given as “failed”.

“MGKDFKSLVTRCIYVGKMNDNAKKLKIATEELKDLGNNVMKRVKLCEEQQQMKRLDKVQTWLRQADTVIKEAEEYFLMSSSSSSSGLISSSHKMEKKICKKLKEVQEIKSRGMFEVVAESTGGIGGGAGGGLTIKDSDEQTIGLEAVSGLVWRCLTMENTGIIGLYGVEGVGKTTVLTQVNNRLLQQKANGFDFVLWVFVSKNLNLQKIQDTIREKIGFLDRTWTSKSEEEKAAKIFEILSKRRFALFLDDVWEKVDLVKAGVPPPDAQNRSKIVFTTCSEEVCKEMSAQTKIKVEKLAWERAWDLFKKNVGEDTIKSHPDIAKVAQEVAARCDGLPLALVTIGRAMASKKTPQEWRDALYILSNSPPNFSGQIS”: the protein production result was “failed”. As for “MGKDLAECYLGLGSTFRTLGEYRKAEAVLANGVKQFPNHQALRVFYAMVLYNLGRYEQGVELLLKIIAETSDDETIQSYKQAILFYADKLLEHHHHHH”, the entry is “failed”. Turning to “MGKENSKVVVLDFWASPYAMRTKVALREKGVEFEVQEEDLWNKSELLLKSNPVHKKVPVLIHNNTPISESLIQVQYIDETWTDAASFLPSDPQSRATARFWADYADKTISFEGGRKIWGNKKGEEQEKGKKEFLESLKVLEAELGDKSYFGGETFGYVDITLVPFYSWFYALEKCGDFSVEAECPKIVAWGKRCVERNSVAATLPESEKVYQQVLKLRQIFGVE”, the protein production result was “failed”.

As for “MGKGVAFFSGGKDGLYALYLAEEMGIEVPYLLVLKTSIGLSPHWENLDALKTLAKVMEREILTFDMRRGSKALAEFISSLDVDYLIAGDVYLEDHILWVKSLAEEANVKPLEPLWGRNTRKLAEEMLREGFNWAIIAVDKRKLGKEWLGYTFRSIEDLENFLRANPNVDPLGEVGEFHTVVLNSPLFALNFELKVESIEEDERYWWLRFELREVEKWNLNS”, the protein production result is “failed”. Turning to “MGKNIPSSLDLYPIIHNYLQEDDEILDIGCGSGKISLELASLGYSVTGIDINSEAIRLAETAARSPGLNQKTGGKAEFKVENASSLSFHDSSFDFAVMQAFLTSVPDPKERSRIIKEVFRVLKPGAYLYLVEFGQNWHLKLYRKRYLHDFPITKEEGSFLARDPETGETEFIAHHFTEKELVFLLTDCRFEIDYFRVKELETRTGNKILGFVIIAQKLLEHHHHHH”, the protein production entry was “not failed”.

As to “MGKRRFQKAKETSSVAEASSPTESQATRRRRGRPRKNLENPEDFKKEESEEDEDYEEYEDEEEEDEEAEVVINREKLKKKVRSSSGSMEKEQKMKHEELEEEEKPEMTVKVVVPPPSSRRSRRKSTPVKSW”, the protein production entry is “failed”. On to “MGKYFFSETEIKNSWDLVLTAFWQRYPNPFSSHVLTEDVLFRKVTSENLLVSRRLFTKTNRLPRWAERIFPGRRSVYIIEDSVVDLSNRSLTTMTWNVNHAKLMRVVERCVFTGEQDRPVWTHITRQAWISSGVFGLSRPIQEFGLARFRSNQLKAMKGMEHAISNLQKASSSCHGESAEKPKNVNPAAKNAQKPQQYI”, for which the protein production entry is “failed”. For “MGLFAKITTASDPRTARIAGILLMLLAMLAFSFADAAGKTVVAIYSVGQLLVLRALAGLLVLSPLIWRQRKAFLQLERPGLQLARTLIAACEVAVFYLATAYLPLADVITFYLASSLFVSVGAALFLGETIDRPRGIAIVVGFVGVLIALQPSTQTMSWPALIAILASVLFAGLLLLTRFLRQTPDMVLASQQFAGTLLLGLVLAPSGWITPSATDLVWFAISGAVSAVGLLCVNRSLRLAPASVVVPYQYTMIIFAAAFGWLLFGDVPSRATVAGVAIIIAAGLYLGWRERSTSRPPVGG” the value was “failed”; for “MGLGVACSSSQPPGSTTEANGPAVSSGPSLFLLHTTPADGLVLHDARTDESRTLAAGATAKPARAVSPSGRHLAFSYATADSSHLTLLDLTTQQAHRVHAAAGTSVAYSLAWHPNQERLAVGYYRPTDDGGRGPGGLQVVTPDGTTRDVGCSSVREVLHWLPDGSLAARTDDNLYVVDAGDCATQASLDIRRMHHLRYAPTGQQMAYIYRELEYDRDRGEYVPDSSFVLSGPDGTNPETLFGNERHARHHRWAPETNEVALDVRVEASGHRQVVVYDGSRPTFLVSPDQTTADQVHPRWSPSGNRIAFTLRSDASSQAAVRVKGQTRRLGRVDGAVWGWLDDRSVVVPGPDSVRVKALNGTTRYAHPTPQTLLHVWRRSAS”, “failed”; for “MGLIYKVADQDWEFERIHKLNYKTFVEEIPQHEETKDRVRIDRFHDENTYLICLDEDKLVGMVALRGKRPFSLDYKISNLDFYLQEHGENVYEIRLLSVEREYRNGRALLGLIRFLHRYLLLNGYELALISATTRELPLYEQMGFKSFHTL”, “failed”. As for “MGLLGIVIALGAMIWLAFRGWSILIIAPAAALLAAATAGEPLLAHWTQTFMGTAAGFVAQFFPLFLLGALFGKLMDDSGSVTAIAEWMTRVLGPQRAMLAVVLAGALLTYGGVSLFVAFFVLAPMAHALFRAADIPPRLMPAAIVLGTSTFTMSALPGTPAIQNAIPMPFFSTTPFAAPGLGIVASAIMLTFGLWWLSQRENAARRRGEGYAIAEEEASPDEVAERPLIRELASTAREFDPAEALQGSRSDEPPAAFIALLPLAVVIVVNLLMSFVVLPRVDADYLGLPEWGATTLQAVSGVWSVIVALTAAILCLIALNFRRLPELRDSMGAGAHAAALPVLSVASLVGFGAVVASLPGFGVVRDWVLSIEGGPLVSLAVATNVLSALTGSASGGLTIALDALGGTYLTRAFDLGIDPAILHRVAVMSAGTLDTLPHNGAVVTLLAVCGATHRESYGGIVMVGIVGPMLALAAVIALGSWVGSF”, the entry is “failed”; as for “MGLPSSLESYLLLILLSFLNVSTIYSSKPSKEEAVLFGGNFPAFYVIGDSLVDPGNNNHLPTMIRANYPPYGSDFEGGKATGRFSNGKTIADYIAIYYKLPLVPAYLGLSDDRKDTISTGMNYASAGCGIRRLTGKIAGKCLSLSKQVDLFEETIEKHLKTNFKTPYELREHLAHSLFMTVIGVNDYAFFYTRLTDANDFADELLHKFLKKIEKLHKLGARKFFINNIKPLGCYPNIVAKTVPRGSRRTYKPCYKHLQRKA”, “failed”.

As to “MGLSSLPGPSEGMLCVILVNTALSISIVKGIVRSFLGIVGISLSPSSSSPSSVTVSSENSSTSESFDFRVCQPESYLEEFRNRTPTLRFESLCRCKKQADNECSVCLSKFQGDSEINKLKCGHLFHKTCLEKWIDYWNITCPLCRTPLVVVPEDHQLSSNVW”, the protein production result was “failed”. Consider “MGLTEQKQKHMEQLSDKNGIISALAFDQRGALKRLMAKYQSEEPTVSQIEALKVLVAEELTPYASSMLLDPEYGLPATKVLDDNAGLLLAYEKTGYDTSSTKRLPDCLDIWSAKRIKEEGADAVKFLLYYDVDSSDEVNEEKEAYIERIGSECVAEDIPFFLEILSYDEKITDSSGIEYAKIKPRKVIEAMKVFSNPRFNIDVLKVEVPVNMDYVEGFAQGETAYNKATAAAYFREQDQATLLPYIFLSAGVPAQLFQETLVFAKEAGAKFNGVLCGRATWAGSVKEYVEKGEAGARQWLRTIGFQNIDELNKILQKTATSWKER”, for which the protein production entry is on record as “not failed”. For “MGLVGLHSGTIDMEFIGVEDHGDEEGKQIAVSVISSGKNADKTEDPDSLIFTGFGGTDMYHGQPCNQKLERLNIPLEAAFRKKSIVRVVRCMKDEKRTNGNIYIYDGTYMITNRWEEEGQNGFIVFKFKLVREPDQKPAFGIWKSIQNWRNGLSIRPGLILEDLSNGAENLKVCLVNEVDKENGPALFRYVTSLIHEVINNIPSMVDRCACGRRSCGSKHVFREKLSVSSSLVISAKKSGNVARFMNHSCSPNVFWQSIAREQNGLWCLYIGFFAMKHIPPLTELRYDYGKSRGGGKKMCLCRTKKCCGSFG”, the protein production entry was “failed”.

These data come from a protein production outcome set (Wang et al. 2014).
